Among the data in paper PMC5353710, “Structural insights into the γ-lactamase activity and substrate enantioselectivity of an isochorismatase-like hydrolase from Microbacterium hydrocarbonoxydans” (Scientific Reports, 2017) are stoichiometry N values, retold here.

For the test, the target named is isochorismatase-like hydrolase Mh33H4-5540 from Microbacterium hydrocarbonoxydans (Microbacterium hydrocarbonoxydans). Kind of test: SEC; gel filtration of purified MhIHL (Supplementary Fig. S1); conditions of this run not told in the main text. (In general: In gel filtration, larger molecules generally elute earlier.)

Substance “isochorismatase-like hydrolase Mh33H4-5540 from Microbacterium hydrocarbonoxydans (enzyme)” gave a stoichiometry N of 2.

For orientation: stoichiometry N means a count of units in the complex or per binding partner.
